Assay results taken from patent US20250326855A1 (GO THERAPEUTICS, published 2025).
Where no end group is shown, it is not given here. GalNAc = O-linked GalNAc (Tn antigen, GalNAc-alpha1-O-Ser/Thr)

T1: CD44v6 glycopeptide … with O-linked GalNAc on threonine 5 and serine 12 (human)
T1 construct: Synthetic glycopeptide; also called CD44v6-Tn(S + T); Tn-glycosylated CD44v6 glycopeptide
T1 peptide: GYRQT(GalNAc)PKEDSHS(GalNAc)TTGTAAA

T2: CD44v6 peptide glycoform with Tn on serine only (human)
T2 construct: also called CD44v6-Tn(S)
T2 peptide: GYRQTPKEDSHS(GalNAc)TTGTAAA


Tests used:
[1] = target: T1, CD44v6 glycopeptide … with O-linked …; assay: BLI (Octet); biotinylated peptide on biosensor, antibody in solution
Description: (§1) The affinities of humanized 4C8 candidates 1-8 against the CD44v6 glycopeptide and a MUC1 glycopeptide were measured using by bio-layer interferometry (BLI) using an Octet system. The peptides were immobilized onto the biosensor by biotin (ligand) and antibodies were in solution (analyte). Candidate 8(4C8-HV7-4-1-A/LV7-46-A) was most similar to the original […] antibody and was selected for further testing. Table 13 summarizes the dissociation constants (KD) for the noted humanized 4C8 candidates against the glycopeptides.

[2] = target: T3, MUC1 glycopeptide (MUC1-Tn) (UniProt P15941 138-197, limits assumed, Tn (GalNAc) glycosylated; sites not stated in the examples); assay: as above
T3 sequence (P15941 138-197 limits assumed): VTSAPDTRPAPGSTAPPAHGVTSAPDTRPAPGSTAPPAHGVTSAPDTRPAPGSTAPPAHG
Description: as §1

[3] = target: Tn-glycosylated CD44 (human) (UniProt P16070); assay: ELISA, antibody fixed at 1 ug/mL, coated antigen CD44_10-G(S1T1)-BSA titrated
[4] = target: T1, CD44v6 glycopeptide … with O-linked …; assay: hybridoma screening (ELISA, flow cytometry, immunofluorescence)
[5] = target: T1, CD44v6 glycopeptide … with O-linked …; assay: BLI (Octet); biotinylated peptide on biosensor, antibody in solution; Table 13 Octet run with the humanized candidates; 4C8-cAb (mouse) as reference
Description: as §1

[6] = target: T1, CD44v6 glycopeptide … with O-linked …; assay: BLI (Octet), apparent affinity with avidity factored in
[7] = target: T1, CD44v6 glycopeptide … with O-linked …; assay: SPR (Biacore); Biacore, not Octet
[8] = target: T3, MUC1 glycopeptide (MUC1-Tn); assay: Biacore, column 'Affinity (Biacore)', row MUC1-Tn
[9] = target: T2, CD44v6 peptide glycoform with Tn on …; assay: BLI (Octet)

Binder	Kd [1] [nM]	binding result [4]	other results
humanized 4C8 candidate 2 (4C8-HV1-46-A/LV7-43-A) (antibody, V domains shown, also called Molecule Number 2) VH: QVQLVQSGAEVKKPGASVKVSCKASGYTFTSYWMHWVRQAPGQGLEWIGNIYPRSGTTNYDGYFKSRATLTVDTSTSTAYMELSSLRSEDTAVYFCTRSGYDYPFVYWGQGTLVTVSS VL: QAVVTQEPSLTVSPGGTVTLTCRTSTGAVSIRNYANWVQEKPGQAFRGLIGGTNNRAPWTPARFSGSLLGDKAALTLSGVQPEDEAEYFCALLYSNYWVFGGGTKLTVL	194		
10H4 antibody (antibody, V domains shown, Rabbit monoclonal antibody) VH: QSLEESGGRLVTPGTPLTLTCTASGFTINTYHMGWFRQAPGKGLQYIGIVSHDVGTYYATWAKGRFTISKTSSTTVDLRMPSPTTEDTATYICARGPGYWTFNLWGQGTLVTVSS VL: AQVLTQTPASVSAAVGGTVTINCQASQSVYNNNQLSWYQQKPGQPLKQLIYKASTLASGVPSRFKGSGSGSQFTLTISDLECDDAATYFCAGGYKGDIHPFGGGTEVVVK		binds	
2B2 antibody (antibody, V domains shown, Murine monoclonal antibody) VH: EVQLVESGGGLVKPGGSLKLSCAASGFTFSSYAMSWVRQSPERRLEWVAEISSGGSYTYYPDTVTGRFTISRDNAKNTLYLEMSSLRSEDTAMYYCARTVGEDWYFDVWGAGTTVTVSS VL: DIQMTQTTSSLSASLGDRVTISCRASQDISHYLNWYQQKPDGAVKLLIYSTSRLHSGVPSRFSGSGSGTDYSLTISNLEQEDIATYFCQQGYTLPFTFGSGTKLEIK		binds	
18G9 antibody (antibody, V domains shown, Murine monoclonal antibody) VH: DVQLVESGGGLVQPGGSRKLSCAASGFTFSSFGMHWVRQAPEKGLEWVAYISSGSSTIYYADTVKGRFTISRDNPKNTLFLQMTSLRSEDTAMYYCARGSYRAMDYWGQGTSVTVSS VL: QIVLTQSPALMSASPGEKVTMTCSASSSVNYMFWYQQKPRSSPKPWIYLTSNLASGVPARFSGSGSGTSYSLTISSMEAEDAATYYCQLWSSNPFTFGSGTKLEIK		binds	
4C8 monoclonal antibody (antibody, V domains shown, Murine hybridoma antibody; also called 4C8 mAb; mAb 4C8) VH: QVQLQQPGSELVRPGASVKLSCKASGYTFTSYWMHWVKQRPGQGLEWIGNIYPRSGTTNYDGYFKSKATLTVDTSSSTAYMQLSSLTSEDSAVYFCTRSGYDYPFVYWGQGTLVTVSA VL: QAVVTQESALTTSPGETVTLTCRTSTGAVSIRNYANWVQEKPDHLFTGLIGGTNNRAPGVPARFSGSLIGDKAALTITGAQPEDEAIYFCALLYSNYWVFGGGTKLTVL			Kd [5]: 163 nM; Kd [6]: 7.9 nM; Kd [7]: 128 nM; Kd [8]: > 400 nM; EC50 (read off the curve) [3]: 0.02 µg/mL; Kd [9]: 6.4 nM

More lines, main results first:

Kd [1] [nM]	binding result [4]	Binder	other results
169		humanized 4C8 candidate 6 (4C8-HV1-46-A/LV7-46-A) (antibody, V domains shown, also called Molecule Number 6) VH: QVQLVQSGAEVKKPGASVKVSCKASGYTFTSYWMHWVRQAPGQGLEWIGNIYPRSGTTNYDGYFKSRATLTVDTSTSTAYMELSSLRSEDTAVYFCTRSGYDYPFVYWGQGTLVTVSS VL: QAVVTQEPSLTVSPGGTVTLTCRTSTGAVSIRNYANWVQEKPGQAFRGLIGGTNNRAPWTPARFSGSLLGDKAALTLSGAQPEDEAEYFCALLYSNYWVFGGGTKLTVL	binding result [2]: no binding (tested: affinity was below the detection limits)
191		humanized 4C8 candidate 1 (4C8-HV1-18-A/LV7-43-A) (antibody, V domains shown, also called Molecule Number 1) VH: QVQLVQSGAEVKKPGASVKVSCKASGYTFTSYWMHWVRQAPGQGLEWIGNIYPRSGTTNYDGYFKSRATLTVDTSTSTAYMELRSLRSDDTAVYFCTRSGYDYPFVYWGQGTLVTVSS VL: QAVVTQEPSLTVSPGGTVTLTCRTSTGAVSIRNYANWVQEKPGQAFRGLIGGTNNRAPWTPARFSGSLLGDKAALTLSGVQPEDEAEYFCALLYSNYWVFGGGTKLTVL	EC50 (read off the curve) [3]: 0.02 µg/mL
161		humanized 4C8 candidate 3 (4C8-HV1-69-A/LV7-43-A) (antibody, V domains shown, also called Molecule Number 3) VH: QVQLVQSGAEVKKPGSSVKVSCKASGYTFTSYWMHWVRQAPGQGLEWIGNIYPRSGTTNYDGYFKSRATLTVDTSTSTAYMELSSLRSEDTAVYFCTRSGYDYPFVYWGQGTLVTVSS VL: QAVVTQEPSLTVSPGGTVTLTCRTSTGAVSIRNYANWVQEKPGQAFRGLIGGTNNRAPWTPARFSGSLLGDKAALTLSGVQPEDEAEYFCALLYSNYWVFGGGTKLTVL	
183		humanized 4C8 candidate 7 (4C8-HV1-69-A/LV7-46-A) (antibody, V domains shown, also called Molecule Number 7) VH: QVQLVQSGAEVKKPGSSVKVSCKASGYTFTSYWMHWVRQAPGQGLEWIGNIYPRSGTTNYDGYFKSRATLTVDTSTSTAYMELSSLRSEDTAVYFCTRSGYDYPFVYWGQGTLVTVSS VL: QAVVTQEPSLTVSPGGTVTLTCRTSTGAVSIRNYANWVQEKPGQAFRGLIGGTNNRAPWTPARFSGSLLGDKAALTLSGAQPEDEAEYFCALLYSNYWVFGGGTKLTVL	binding result [2]: no binding (tested: affinity was below the detection limits); EC50 (read off the curve) [3]: 0.02 µg/mL
177		humanized 4C8 candidate 5 (4C8-HV1-18-A/LV7-46-A) (antibody, V domains shown, also called Molecule Number 5) VH: QVQLVQSGAEVKKPGASVKVSCKASGYTFTSYWMHWVRQAPGQGLEWIGNIYPRSGTTNYDGYFKSRATLTVDTSTSTAYMELRSLRSDDTAVYFCTRSGYDYPFVYWGQGTLVTVSS VL: QAVVTQEPSLTVSPGGTVTLTCRTSTGAVSIRNYANWVQEKPGQAFRGLIGGTNNRAPWTPARFSGSLLGDKAALTLSGAQPEDEAEYFCALLYSNYWVFGGGTKLTVL	
	binds	1D12 antibody (antibody, V domains shown, Murine monoclonal antibody) VH: DVQLVESGGGLVQPGGSRKLSCAASGFTFSSFGIHWVRQAPEKGLEWVAYISSGSSTIYYADTVKGRFTISRDNPKNTLFLQMTSLRSEDTAMYYCARGSKVVAKSRGYWYFDVWGAGTTVTVSS VL: DVVVTQTPLFLPVSFGDQVSISCRSSQSLANNYGITYLSWYLHRPGQSPQLLIYGISNRFSGVPDRFSGSGSGTDFTLKISTIKPEDLGMYYCLQGTHQPWTFGGGTKLEIK	
